Assay [1] deals with T1, human Nectin-1(C-6His), Novoprotein Cat# C492 (human, UniProt Q15223 31-334, limits assumed).
T1 sequence: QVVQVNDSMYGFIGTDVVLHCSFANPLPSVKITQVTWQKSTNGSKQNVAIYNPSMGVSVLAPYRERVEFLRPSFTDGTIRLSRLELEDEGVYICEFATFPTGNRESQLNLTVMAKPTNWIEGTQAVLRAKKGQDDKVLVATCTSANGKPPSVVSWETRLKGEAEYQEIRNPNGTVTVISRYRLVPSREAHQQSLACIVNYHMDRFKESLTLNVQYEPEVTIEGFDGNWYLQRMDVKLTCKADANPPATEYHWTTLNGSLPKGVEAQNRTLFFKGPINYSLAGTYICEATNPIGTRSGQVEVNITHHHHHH
The assay can be described thus: ELISA, plate coated with 1 µg/ml human Nectin-1(C-6His), absorbance at 450 nm. The text names only a goat anti-rabbit HRP secondary antibody. As for the experimental part: (§1) Plates were coated with 1 µg/ml of the antigens and incubated at 4° C. overnight; next, antibodies serially diluted were added into the plates. Finally, the HRP-labeled secondary antibody was added, and absorbance at 450 nm was detected.
In general terms: In an ELISA, binding on a coated surface is turned into a signal by an enzyme label.

For a further assay, the target named is T2, human Nectin-4 (human, UniProt Q96NY8 32-510).
T2 construct: whole, on cells; Cell-surface target of the FACS, endocytosis and proliferation assays (CHO-huNectin4 S8 cells, BT474 cells); the assay field says which cells; also called huNectin4; PVRL4
T2 sequence (looked up): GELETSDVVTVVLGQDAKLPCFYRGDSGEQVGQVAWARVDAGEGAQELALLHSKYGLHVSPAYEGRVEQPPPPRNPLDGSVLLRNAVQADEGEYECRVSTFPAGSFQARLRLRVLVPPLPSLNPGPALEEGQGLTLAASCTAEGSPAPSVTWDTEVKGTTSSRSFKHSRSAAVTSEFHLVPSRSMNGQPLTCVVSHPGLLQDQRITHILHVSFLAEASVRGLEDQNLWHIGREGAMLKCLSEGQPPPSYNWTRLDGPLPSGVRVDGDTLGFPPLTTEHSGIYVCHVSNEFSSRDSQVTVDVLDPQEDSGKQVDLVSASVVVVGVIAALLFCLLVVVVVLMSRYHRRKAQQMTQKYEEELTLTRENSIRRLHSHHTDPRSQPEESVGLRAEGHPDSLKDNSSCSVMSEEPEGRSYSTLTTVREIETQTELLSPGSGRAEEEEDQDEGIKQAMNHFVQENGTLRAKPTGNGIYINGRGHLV
The assay can be described thus: FACS on BT474 cells. As for the experimental part: The solutions of different concentrations were added to 384-well plates, 10 µl per well.
BT474 cells (breast cancer cells) expressing Nectin-4 on the cell surface were collected by centrifugation at 100 g at room temperature for 5 minutes, and then the cells were washed with PBS containing 0.5% BSA once and were centrifuged at 100 g at room temperature for 5 minutes. […] After incubation at 4° C. for 1 hour, fluorescently labeled goat anti-human IgG secondary antibody was added. After continued incubation at 4° C. for 1 hour, mean fluorescence readings of the cell populations were analyzed by a flow cytometer.
The experiment results of the binding of engineered humanized molecules of the present disclosure to BT474 cells by FACS assay are shown in panels 3B and 3C in FIG. 3 and Tables 6 and 7.

The target in assay [2] is T3, human Nectin-2(C-6His), Novoprotein Cat# C440 (human, UniProt Q92692 32-360, limits assumed).
T3 sequence: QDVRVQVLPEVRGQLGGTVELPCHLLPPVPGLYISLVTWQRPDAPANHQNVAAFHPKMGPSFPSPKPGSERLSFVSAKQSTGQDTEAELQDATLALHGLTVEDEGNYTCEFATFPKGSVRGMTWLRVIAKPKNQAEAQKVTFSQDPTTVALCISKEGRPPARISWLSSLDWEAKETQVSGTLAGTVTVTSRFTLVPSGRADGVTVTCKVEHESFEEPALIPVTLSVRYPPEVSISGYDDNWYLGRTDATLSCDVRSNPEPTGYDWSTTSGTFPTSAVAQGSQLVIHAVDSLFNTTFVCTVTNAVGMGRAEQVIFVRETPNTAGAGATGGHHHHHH
The assay can be described thus: ELISA, plate coated with 1 µg/ml human Nectin-2(C-6His), absorbance at 450 nm. The text names only a goat anti-rabbit HRP secondary antibody. As for the experimental part: as §1

Assay [3] has as its target T4, murine Nectin4 (NP_082169) (murine, UniProt Q8R007 31-508).
T4 construct: whole, on cells; also called muNectin4
T4 sequence (looked up): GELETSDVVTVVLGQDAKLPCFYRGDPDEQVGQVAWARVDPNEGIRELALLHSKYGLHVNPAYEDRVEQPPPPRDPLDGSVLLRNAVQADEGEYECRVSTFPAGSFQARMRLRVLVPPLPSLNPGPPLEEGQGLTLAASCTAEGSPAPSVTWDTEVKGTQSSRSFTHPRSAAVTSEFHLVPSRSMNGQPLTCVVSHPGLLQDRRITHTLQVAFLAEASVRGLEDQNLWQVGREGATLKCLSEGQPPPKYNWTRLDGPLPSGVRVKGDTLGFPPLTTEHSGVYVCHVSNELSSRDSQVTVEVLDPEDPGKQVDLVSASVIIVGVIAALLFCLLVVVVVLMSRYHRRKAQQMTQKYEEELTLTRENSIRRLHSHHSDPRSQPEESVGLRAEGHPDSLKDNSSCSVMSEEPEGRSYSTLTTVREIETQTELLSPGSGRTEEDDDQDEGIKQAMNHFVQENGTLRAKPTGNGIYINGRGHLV
The assay can be described thus: FACS on HEK-muNectin4 cells.

The EC50 is the concentration giving half of the maximal effect. Low values mean greater potency, high ones weaker potency.

B1: 42D20 hz10 (antibody, V domains shown)
VH: QVQLQESGPGLVKPSETLSLTCTVSGFSLIDYGVSWIRQPPGKGLEWIGVIWGDGKIYYNSVLKSRVTISKDNSKSQVSLKLSSVTAADTAVYYCAKQGGLLFYAMDYWGQGTLVTVSS
VL: DIVMTQSPDSLAVSLGERATINCKSSQSLLNSYSQKNYLAWYQQKPGQPPKLLIYFASTRESGVPDRFSGSGSGTDFTLTISSLQAEDVAVYYCQQHYNTPFTFGAGTKLELKR
notes: Humanized
For B1, the binding result in assay [1] is “no binding (tested: about 2.5 µg/ml (last point))”; in assay [2], “no binding (tested: 10 µg/ml)”. For the same molecule, the values for the EC50 (with human Nectin-4; in assay [3]) were 0.0528 µg/mL and 8.74 µg/mL, respectively.

B2: Enfortumab (antibody, human IgG1, kappa, V domains shown)
VH: EVQLVESGGGLVQPGGSLRLSCAASGFTFSSYNMNWVRQAPGKGLEWVSYISSSSSTIYYADSVKGRFTISRDNAKNSLSLQMNSLRDEDTAVYYCARAYYYGMDVWGQGTTVTVSS
VL: DIQMTQSPSSVSASVGDRVTITCRASQGISGWLAWYQQKPGKAPKFLIYAASTLQSGVPSRFSGSGSGTDFTLTISSLQPEDFATYYCQQANSFPPTFGGGTKVEIKR
notes: also called control antibody Enfortumab
For B2, the results for the binding result in assay [1] and in assay [2] were “no binding (tested: about 2.5 µg/ml (last point))” and “no binding (tested: 10 µg/ml)”, respectively. Also, the EC50 in the assay with human Nectin-4 turned out to be 0.0503 µg/mL; in assay [3], 2.43 µg/mL.

Values taken from patent publication US20230265183A1 (MABWELL SHANGHAI BIOSCIENCE, published 2023).
